According to patent publication US20250215072A1 (published 2025):
Where a chain is given by its changes, count along the chain named. Where two headings read alike, the source gives them in different places.

Legend:
[1] = target: T1, human LRRC33-proTGFβ1 complex (human, UniProt P01137 30-390; Q86YC3 19-650); experiment: BLI (Octet)
T1 construct: also called hLRRC33-proTGFβ1; hLRRC33
Experimental: (§1) The affinity of anti-TGFβ1 antibodies was measured by Octet@ assay on human proTGFβ1 cells, while activity was measured by CAGA12 reporter cells testing human proTGFβ1 inhibition.

[2] = target: T2, human GARP-proTGFβ1 complex (human, UniProt P01137 30-390; Q14392 20-627); experiment: BLI (Octet)
T2 construct: also called hGARP-proTGFβ1; hGARP
Experimental: as §1

[3] = target: T3, murine LTBP1-proTGFβ1 complex (mouse, UniProt P04202 30-390; Q8CG19 339-1712, limits assumed); experiment: MSD-SET
T3 construct: also called mLTBP1-proTGFβ1
Experimental: (§2) As an example, MSD standard plates (MSD) were coated with a 20 nM solution of monoclonal antibody in PBS for 30 min at room temperature or overnight at 4° C. […] After 20-24 hours of equilibration, the antibody-coated plate was blocked with Blocking Buffer A (MSD) for 30 minutes at room temperature and washed with wash buffer (PBS, 0.1% BSA, 0.05% Tween-20) before adding the equilibrated antibody-antigen complexes to the plate for exactly 2.5 minutes. The plate was washed again with wash buffer before adding 250 ng/ml SULFO-TAG-labeled streptavidin secondary reagent (MSD) in PBS with 0.1% BSA. After washing with wash buffer, plates were read in MSD read buffer (MSD) using the MESO QuickPlex SQ 120 (MSD). The binding data were processed by nonlinear curve fitting in Prism 7 software (Graphpad) to calculate equilibrium binding KD values.

[4] = target: T4, murine GARP-proTGFβ1 complex (mouse, UniProt P04202 30-390; G3XA59 18-628); experiment: MSD-SET
T4 construct: Soluble murine complex; also called mGARP-proTGFβ1
Experimental: as §2

[5] = target: rat LRRC33-proTGFβ1 complex (rat, UniProt P17246 30-390; Q5BK65 25-650); experiment: MSD-SET
Experimental: as §2

[6] = target: rat LTBP1-proTGFβ1 complex (rat, UniProt P17246 30-390; Q00918 339-1712); experiment: MSD-SET
Experimental: as §2

[7] = target: T1, human LRRC33-proTGFβ1 complex; experiment: MSD-SET
Experimental: as §2

[8] = target: T2, human GARP-proTGFβ1 complex; experiment: MSD-SET
Experimental: as §2

[9] = target: T1, human LRRC33-proTGFβ1 complex; experiment: MSD-SET, hIgG4
Experimental: (§3) MSD-SET assays were performed to measure affinities of the antibodies at equilibrium. Briefly, each test antibody was diluted 3-5 fold and samples were mixed with biotinylated antigen in a 48-well dish. The SET samples were equilibrated for 20-24 hours at room temperature. Meanwhile, a capture plate was coated with IgG (20 nM) and incubated overnight at 4° C. or 30 minutes at room temperature, followed by a blocking step with 5% BSA. After the capture plate was washed three times, SET samples were added and incubated for 150 seconds. The plate was washed once to remove unbound complexes. 250 ng/ml SA-Sulfotag was added then washed 3 times. 2× Read Buffer was added, and signals from the labeled bound complexes were read with the use of QuickPlex™ SQ 120 instrument.

[10] = target: T2, human GARP-proTGFβ1 complex; experiment: MSD-SET, hIgG4
Experimental: as §3

[11] = target: T3, murine LTBP1-proTGFβ1 complex; experiment: MSD-SET; remark: listed apart in the source
Experimental: as §3, §2

[12] = target: T4, murine GARP-proTGFβ1 complex; experiment: MSD-SET; remark: listed apart in the source
Experimental: as §3, §2

[13] = target: T1, human LRRC33-proTGFβ1 complex; experiment: MSD-SET; remark: listed apart in the source
Experimental: as §3, §2

[14] = target: T2, human GARP-proTGFβ1 complex; experiment: MSD-SET; remark: listed apart in the source
Experimental: as §3, §2

[15] = target: hLTBP1-proTGFβ1 as produced in the cell-based activation assay (human, UniProt P01137 30-390; Q14766 347-1721); experiment: cell-based or functional assay
[16] = target: hGARP-proTGFβ1 presented on cells (human, UniProt P01137 30-390; Q14392 20-662); experiment: cell-based or functional assay
[17] = target: hLRRC33-proTGFβ1 presented on cells (human, UniProt P01137 30-390; Q86YC3 19-692); experiment: cell-based or functional assay
[18] = target: hLTBP3-proTGFβ1 as produced in the cell-based activation assay (human, UniProt P01137 30-390; Q9NS15 44-1303); experiment: cell-based or functional assay
[19] = target: T4, murine GARP-proTGFβ1 complex; experiment: BLI screen of library antibodies

T1 sequence (P01137 30-390 limits assumed, chain 1 of 2): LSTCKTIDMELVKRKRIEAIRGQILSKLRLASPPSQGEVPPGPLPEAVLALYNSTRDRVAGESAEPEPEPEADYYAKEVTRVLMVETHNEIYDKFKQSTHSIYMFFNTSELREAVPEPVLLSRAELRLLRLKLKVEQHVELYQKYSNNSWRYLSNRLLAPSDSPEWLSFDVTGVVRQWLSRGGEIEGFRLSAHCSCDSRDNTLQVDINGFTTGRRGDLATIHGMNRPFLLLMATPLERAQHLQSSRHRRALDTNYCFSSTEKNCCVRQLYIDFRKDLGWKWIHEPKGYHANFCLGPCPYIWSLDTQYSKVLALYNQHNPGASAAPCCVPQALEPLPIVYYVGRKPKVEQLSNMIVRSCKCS
T1 sequence (Q86YC3 other isoform, or with tags, fused parts or gaps limits assumed, chain 2 of 2): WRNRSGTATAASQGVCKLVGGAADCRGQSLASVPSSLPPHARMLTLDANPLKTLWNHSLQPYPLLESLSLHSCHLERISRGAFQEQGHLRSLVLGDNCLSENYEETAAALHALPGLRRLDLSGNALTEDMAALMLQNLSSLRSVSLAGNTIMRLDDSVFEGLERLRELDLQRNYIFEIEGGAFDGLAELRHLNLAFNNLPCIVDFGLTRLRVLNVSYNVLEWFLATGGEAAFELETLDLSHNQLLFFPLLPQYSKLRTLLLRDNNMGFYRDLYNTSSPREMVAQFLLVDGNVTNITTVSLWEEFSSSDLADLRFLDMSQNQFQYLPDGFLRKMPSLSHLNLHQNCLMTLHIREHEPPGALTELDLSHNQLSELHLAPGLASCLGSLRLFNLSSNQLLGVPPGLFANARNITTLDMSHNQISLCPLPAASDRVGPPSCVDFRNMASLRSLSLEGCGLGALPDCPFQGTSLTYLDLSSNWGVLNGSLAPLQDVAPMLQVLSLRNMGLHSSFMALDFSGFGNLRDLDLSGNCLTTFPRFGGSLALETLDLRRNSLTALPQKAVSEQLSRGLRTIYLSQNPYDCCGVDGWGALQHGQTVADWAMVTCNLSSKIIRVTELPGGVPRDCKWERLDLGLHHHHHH
hGARP-proTGFβ1 presented on cells, sequence (P01137 30-390 limits assumed, chain 1 of 2): as the sequence (P01137 30-390 limits assumed, chain 1 of 2) above
hGARP-proTGFβ1 presented on cells, sequence (Q14392 20-662 limits assumed, chain 2 of 2): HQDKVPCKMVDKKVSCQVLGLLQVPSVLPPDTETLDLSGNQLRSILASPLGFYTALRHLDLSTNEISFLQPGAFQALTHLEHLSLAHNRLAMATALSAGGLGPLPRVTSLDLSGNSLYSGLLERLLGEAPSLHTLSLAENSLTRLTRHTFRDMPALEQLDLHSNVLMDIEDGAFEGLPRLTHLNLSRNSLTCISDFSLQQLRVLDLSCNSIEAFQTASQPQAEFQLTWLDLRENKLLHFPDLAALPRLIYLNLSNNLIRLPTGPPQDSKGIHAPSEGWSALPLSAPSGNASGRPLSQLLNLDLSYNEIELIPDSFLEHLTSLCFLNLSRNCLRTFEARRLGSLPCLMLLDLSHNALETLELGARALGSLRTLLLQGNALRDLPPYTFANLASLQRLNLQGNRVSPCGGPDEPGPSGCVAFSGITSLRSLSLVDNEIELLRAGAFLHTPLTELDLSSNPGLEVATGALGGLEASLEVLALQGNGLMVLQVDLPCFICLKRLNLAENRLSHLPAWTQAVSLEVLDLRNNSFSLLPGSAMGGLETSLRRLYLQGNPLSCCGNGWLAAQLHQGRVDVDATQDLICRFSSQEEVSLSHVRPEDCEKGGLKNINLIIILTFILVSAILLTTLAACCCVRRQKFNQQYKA
T2 sequence (P01137 30-390, chain 1 of 2): as the sequence (P01137 30-390 limits assumed, chain 1 of 2) above
T2 sequence (Q14392 20-627, chain 2 of 2): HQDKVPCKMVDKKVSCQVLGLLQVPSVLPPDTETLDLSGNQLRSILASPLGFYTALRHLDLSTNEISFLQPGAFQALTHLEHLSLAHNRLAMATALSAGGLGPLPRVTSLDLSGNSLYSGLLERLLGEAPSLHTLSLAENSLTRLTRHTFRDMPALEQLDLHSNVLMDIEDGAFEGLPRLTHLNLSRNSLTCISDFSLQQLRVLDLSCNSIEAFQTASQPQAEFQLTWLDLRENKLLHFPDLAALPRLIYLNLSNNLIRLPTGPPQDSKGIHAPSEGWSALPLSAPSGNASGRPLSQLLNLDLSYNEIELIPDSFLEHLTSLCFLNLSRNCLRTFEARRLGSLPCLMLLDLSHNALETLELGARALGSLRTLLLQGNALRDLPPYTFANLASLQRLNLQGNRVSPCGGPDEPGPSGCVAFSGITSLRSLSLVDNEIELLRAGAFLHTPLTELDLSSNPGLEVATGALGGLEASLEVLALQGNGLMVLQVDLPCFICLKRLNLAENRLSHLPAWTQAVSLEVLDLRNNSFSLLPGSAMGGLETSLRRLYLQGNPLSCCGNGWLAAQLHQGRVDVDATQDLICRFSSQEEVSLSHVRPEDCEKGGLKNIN
hLTBP3-proTGFβ1 as produced in the cell-based activation assay, sequence (P01137 30-390 limits assumed, chain 1 of 2): as the sequence (P01137 30-390 limits assumed, chain 1 of 2) above
hLTBP3-proTGFβ1 as produced in the cell-based activation assay, sequence (Q9NS15 44-1303 limits assumed, chain 2 of 2): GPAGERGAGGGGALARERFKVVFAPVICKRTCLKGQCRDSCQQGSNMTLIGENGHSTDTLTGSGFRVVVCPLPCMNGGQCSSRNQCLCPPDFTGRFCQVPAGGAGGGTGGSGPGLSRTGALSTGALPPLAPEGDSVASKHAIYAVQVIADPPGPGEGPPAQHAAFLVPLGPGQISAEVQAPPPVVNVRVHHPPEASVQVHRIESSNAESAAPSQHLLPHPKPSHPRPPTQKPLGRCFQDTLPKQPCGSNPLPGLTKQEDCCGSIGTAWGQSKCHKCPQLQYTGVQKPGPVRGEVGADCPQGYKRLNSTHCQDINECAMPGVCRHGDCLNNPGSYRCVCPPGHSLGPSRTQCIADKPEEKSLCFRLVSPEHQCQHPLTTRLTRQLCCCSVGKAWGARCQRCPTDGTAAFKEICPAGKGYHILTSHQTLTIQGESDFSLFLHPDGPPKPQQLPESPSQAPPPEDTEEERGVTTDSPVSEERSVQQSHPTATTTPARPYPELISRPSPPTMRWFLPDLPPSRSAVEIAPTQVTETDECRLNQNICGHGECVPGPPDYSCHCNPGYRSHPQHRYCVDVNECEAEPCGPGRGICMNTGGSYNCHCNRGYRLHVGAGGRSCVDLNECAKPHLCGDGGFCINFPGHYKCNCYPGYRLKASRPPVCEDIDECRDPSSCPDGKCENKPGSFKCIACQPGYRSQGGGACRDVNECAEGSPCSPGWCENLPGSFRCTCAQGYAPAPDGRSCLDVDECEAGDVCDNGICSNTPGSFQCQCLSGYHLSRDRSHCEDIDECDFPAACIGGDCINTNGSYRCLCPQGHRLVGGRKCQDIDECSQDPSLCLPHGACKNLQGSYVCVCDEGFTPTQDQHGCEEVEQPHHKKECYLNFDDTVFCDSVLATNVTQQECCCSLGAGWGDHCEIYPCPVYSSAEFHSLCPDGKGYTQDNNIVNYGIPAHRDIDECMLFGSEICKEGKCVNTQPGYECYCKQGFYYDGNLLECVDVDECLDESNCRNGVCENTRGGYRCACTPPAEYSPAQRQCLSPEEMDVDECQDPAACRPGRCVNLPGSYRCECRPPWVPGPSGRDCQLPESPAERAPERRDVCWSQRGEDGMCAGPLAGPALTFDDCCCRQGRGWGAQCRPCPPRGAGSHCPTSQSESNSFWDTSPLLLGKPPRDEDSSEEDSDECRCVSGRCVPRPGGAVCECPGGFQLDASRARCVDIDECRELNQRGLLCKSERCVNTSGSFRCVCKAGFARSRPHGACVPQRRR
hLRRC33-proTGFβ1 presented on cells, sequence (P01137 30-390 limits assumed, chain 1 of 2): as the sequence (P01137 30-390 limits assumed, chain 1 of 2) above
hLRRC33-proTGFβ1 presented on cells, sequence (Q86YC3 19-692 limits assumed, chain 2 of 2): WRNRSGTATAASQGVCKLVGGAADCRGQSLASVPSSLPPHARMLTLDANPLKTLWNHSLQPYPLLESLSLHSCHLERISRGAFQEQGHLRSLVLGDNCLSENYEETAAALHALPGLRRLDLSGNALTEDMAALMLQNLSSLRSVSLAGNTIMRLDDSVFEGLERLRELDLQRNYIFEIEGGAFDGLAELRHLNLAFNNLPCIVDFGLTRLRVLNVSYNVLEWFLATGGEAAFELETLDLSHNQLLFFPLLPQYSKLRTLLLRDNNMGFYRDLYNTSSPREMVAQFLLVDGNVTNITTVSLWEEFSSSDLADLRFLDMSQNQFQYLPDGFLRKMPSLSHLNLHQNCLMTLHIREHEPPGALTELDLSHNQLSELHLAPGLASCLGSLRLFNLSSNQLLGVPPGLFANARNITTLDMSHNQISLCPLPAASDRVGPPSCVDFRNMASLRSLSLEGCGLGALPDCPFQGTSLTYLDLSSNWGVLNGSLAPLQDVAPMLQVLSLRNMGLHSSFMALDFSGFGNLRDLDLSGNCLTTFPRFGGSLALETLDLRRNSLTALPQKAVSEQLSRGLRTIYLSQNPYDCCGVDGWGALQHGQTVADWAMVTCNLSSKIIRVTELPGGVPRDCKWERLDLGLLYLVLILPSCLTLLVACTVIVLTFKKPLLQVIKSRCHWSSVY

B1: Ab6 (antibody, V domains shown)
VH: EVQLVESGGGLVQPGGSLRLSCTASGFTFSSFSMDWVRQAPGKGLEWVSYISPSADTIYYADSVKGRFTISRDNAKNTLYLQMNSLRAEDTAVYYCARGVLDYGDMLMPWGQGTLVTVSS
VL: DIQMTQSPSSLSASVGDRVTITCQASQDITNYLNWYQQKPGKAPKLLIYDASNLETGVPSRFSGSGSGTDFTFTISSLQPEDIATYYCQQADNHPPWTFGGGTKVEIKR
B1 was tested, and the Kd [1] was 0.336 nM, the Kd [2] was 0.404 nM and the Kd [3] was 0.024 nM. The Kd [4] was 0.021 nM, the Kd [5] was 0.086 nM and the Kd [6] was 0.035 nM. It also gave a Kd [7] of 0.063 nM, a Kd [8] of 0.027 nM and a Kd [9] of 0.063 nM. The Kd [10] was 0.027 nM, the Kd [11] was 0.024 nM and the Kd [12] was 0.021 nM. The Kd [13] was 0.063 nM, the Kd [14] was 0.027 nM and the “IC50, reporter cell assay” value [15] was 2.74 nM. For the same binder, the “IC50, reporter cell assay” value [16] was 0.324 nM, the “IC50, reporter cell assay” value [17] was 0.495 nM and the “IC50, reporter cell assay” value [18] was 0.821 nM.

B2: Ab4 (antibody, IgG4, V domains shown)
VH: B1 VH with T23A, F32Y, D35N, P53S, A55S, D56S, T78S, M108D
VL: DIQMTQSPSSLSASVGDRVTITCQASQDITNYLNWYQQKPGKAPKLLIYDASNLETGVPSRFSGSGSGTDFTFTISSLQPEDIATYYCQQADNHPPWTFGGGTKVEIK
notes: parent of Ab6
B2 was tested, and the binding result [19] was “binds”, the Kd [9] was 2.1 nM and the Kd [10] was 2.5 nM. The “IC50, reporter cell assay” value [15] was 5.22 nM, the “IC50, reporter cell assay” value [16] was 0.822 nM and the “IC50, reporter cell assay” value [17] was 3.5 nM. For the same binder, the “IC50, reporter cell assay” value [18] was 5.65 nM.

B3: Ab33 (antibody, IgG4, V domains shown)
VH: B1 VH with T23A, D35N, R98H, M108D
VL: B2 VL
Binder B3 has a Kd [1] of 0.339 nM, a Kd [2] of 0.265 nM and a Kd [9] of 0.046 nM. For the same binder, the Kd [10] was 0.0078 nM, the “IC50, reporter cell assay” value [15] was 1.56 nM and the “IC50, reporter cell assay” value [16] was 0.198 nM. The “IC50, reporter cell assay” value [17] was 0.738 nM and the “IC50, reporter cell assay” value [18] was 1.11 nM.

B4: Ab11 (antibody, IgG4, V domains shown)
VH: EVQLLESGGGLVQPGGSLRLSCAASGFTFRNYAMSWVRQAPGKGLEWVSSISGSGGATYYADSVKGRFTISRDNSKNTLYLQMNSLRAEDTAVYYCARVSSGHWDFDYWGQGTLVTVSS
VL: DIQLTQSPSSLSASVGDRVTITCRASQSISSYLNWYQQKPGKAPKLLIYAASNLQSGVPSRFSGSGSGTDFTLTISSLQPEDFATYYCQQTYTVPLTFGGGTKVEIK
With B4 the Kd [1] was 0.555 nM, the Kd [2] was 0.842 nM and the Kd [9] was 6.3 nM. The Kd [10] was 3 nM, the “IC50, reporter cell assay” value [15] was 2.95 nM and the “IC50, reporter cell assay” value [16] was 0.79 nM. For the same binder, the “IC50, reporter cell assay” value [17] was 1.27 nM and the “IC50, reporter cell assay” value [18] was 1.56 nM.

B5: Ab35 (antibody, IgG4, V domains shown)
VH: B4 VH with G102Y, H103L
VL: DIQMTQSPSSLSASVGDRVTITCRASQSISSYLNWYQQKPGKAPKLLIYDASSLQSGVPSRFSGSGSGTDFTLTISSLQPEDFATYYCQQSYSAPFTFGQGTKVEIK
B5 was tested, and the Kd [1] was 0.545 nM, the Kd [2] was 7.37 nM and the Kd [9] was 1.1 nM. The Kd [10] was 1.1 nM, the “IC50, reporter cell assay” value [15] was 6.25 nM and the “IC50, reporter cell assay” value [16] was 3.71 nM. For the same binder, the “IC50, reporter cell assay” value [17] was 5.37 nM and the “IC50, reporter cell assay” value [18] was 2.71 nM.

B6: Ab2 (antibody, V domains shown)
VH: B4 VH with R30A, N31D, S35T, S50A, G56A, Y60F
VL: DIQLTQSPSSLSASVGDRVTITCRASQSISSYLNWYQQKPGKAPKLLIYAASNLQSGVPSRFSGSGSGTDFTLTISSLQPEDFATYYCQQTYTVPLTFGGGTKVEIKR
B6 was tested, and the Kd [1] was 0.508 nM, the Kd [2] was 0.778 nM and the Kd [9] was 3.2 nM. For the same binder, the Kd [10] was 1.4 nM, the “IC50, reporter cell assay” value [15] was 3.39 nM and the “IC50, reporter cell assay” value [16] was 0.776 nM. For the same binder, the “IC50, reporter cell assay” value [17] was 1.38 nM and the “IC50, reporter cell assay” value [18] was 0.867 nM.

B7: Ab19 (antibody, IgG4, V domains shown)
VH: QVQLVESGGGVVQPGRSLRLSCAASGFTFSSFAMTWVRQAPGKGLEWVSAISGSGAATYFADSVKGRFTISRDNSKNTLYLQMNSLRAEDTAVYYCARVSSGHWDFDEWGQGTLVTVSS
VL: B4 VL
Binder B7 has a Kd [1] of 0.692 nM, a Kd [2] of 11.2 nM and a Kd [9] of 5.7 nM. For the same binder, the Kd [10] was 3.8 nM, the “IC50, reporter cell assay” value [15] was 1.66 nM and the “IC50, reporter cell assay” value [16] was 1.34 nM. For the same binder, the “IC50, reporter cell assay” value [17] was 0.401 nM and the “IC50, reporter cell assay” value [18] was 1.6 nM.

B8: Ab20 (antibody, IgG4, V domains shown)
VH: B4 VH with R30S, N31A, S35T, S50A, A57V, F106Y
VL: B4 VL
Work on B8 yielded a Kd [1] of 0.545 nM, a Kd [2] of 0.884 nM and a Kd [9] of 1.6 nM. For the same binder, the Kd [10] was 1.1 nM, the “IC50, reporter cell assay” value [15] was 1.85 nM and the “IC50, reporter cell assay” value [16] was 0.387 nM. For the same binder, the “IC50, reporter cell assay” value [17] was 1.35 nM and the “IC50, reporter cell assay” value [18] was 1.18 nM.

B9: Ab12 (antibody, IgG4, V domains shown)
VH: B7 VH with S31D, F32Y, T35V, A56F, A57T, F60Y, E108Y
VL: B4 VL
B9 was tested, and the Kd [1] was 0.775 nM, the Kd [2] was 7.01 nM and the Kd [9] was 3.2 nM. The Kd [10] was 1.7 nM, the “IC50, reporter cell assay” value [15] was 3.79 nM and the “IC50, reporter cell assay” value [16] was 1.08 nM. The “IC50, reporter cell assay” value [17] was 2.43 nM and the “IC50, reporter cell assay” value [18] was 1.55 nM.
